Experiments:
tNhtt-60Q = biological target: T1, tNhtt-60Q (Homo sapiens, UniProt P42858, INS38QQQQQQQQQQQQQQQQQQQQQQQQQQQQQQQQQQQQQQQ); experiment: Dot blot of purified intact lysosomes from Neuro2a cells co-transfected with tNhtt-60Q; assay type: cell-based; conditions: 16 hours
T1 construct: N-terminal fragment of human huntington exon 1 (tNhtt) encoding 60 CAG repeats; expressed in transfected cells; host or cells: Neuro2a cells, transient co-transfection
Procedure: We used a modification of the previously described method for the purification of lysosomes from CHO cells (E. A. Madden, B. Storrie, Anal. Biochem. 163, 2 (1987), E. A. Madden, J. B. Wirt, B. Storrie, Arch. Biochem. Biophys. 257, 1 (1987)). Neuro2a cells grown in 10 cm dishes were co-transfected with tNhtt-60Q and tested constructs, and after 16 hrs of incubation, cells were washed with ice cold PBS and homogenized by ten strokes. The homogenate was centrifuged at 1300 g for 5 min. The supernatant was decanted and placed on ice. The nuclear fraction was resuspended in 0.25 M sucrose and centrifuged at 1300 g for 5 min. This step was repeated 3 times and the supernatants from each wash were pooled to give a total post-nuclear supernatant (PNS). All the solutions used for the preparation of the discontinuous gradient were in 0.25 M sucrose. Gradients were prepared in cellulose nitrate tubes for Beckman SW40 rotor. Two ml of 35% Histodenz (Sigma) was overlaid with 2 ml of 17% Histodenz followed by 5 ml of 6% Percoll (Sigma). The tubes were then filled with 4.8 ml of PNS. […]
Cells were washed twice with ice-cold PBS, scraped, and resuspended in lysis buffer (0.5% Triton X-100 in PBS, 0.5 mM phenylmethylsulfonyl fluoride, Complete protease inhibitor mixture (Roche Applied Sciences)). […] Immunoreactive proteins were detected with enhanced chemiluminescence reagents (Amersham Biosciences). […]

150Q-EGFP = biological target: T2, 150Q-EGFP (Homo sapiens, UniProt P42858); experiment: Co-transfection with 150Q-EGFP in Neuro2a cells, confocal imaging with Lysotracker-rhodamine; assay type: cell-based; conditions: co-expression for 16 hours
T2 construct: N-terminal fragment of human huntington exon 1 (tNhtt); expressed in transfected cells; host or cells: Neuro2a cells, transient co-transfection (pcDNA3.1)
T2 sequence (P42858 with tags, fused parts or gaps): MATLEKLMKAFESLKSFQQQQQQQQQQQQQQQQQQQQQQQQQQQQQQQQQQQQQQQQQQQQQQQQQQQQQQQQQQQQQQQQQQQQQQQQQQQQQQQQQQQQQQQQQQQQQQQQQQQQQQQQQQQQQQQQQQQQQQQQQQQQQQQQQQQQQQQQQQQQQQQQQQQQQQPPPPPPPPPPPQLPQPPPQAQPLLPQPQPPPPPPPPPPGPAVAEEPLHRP
Source text: The construction of the N-terminal fragment of human huntington exon 1 (tNhtt) encoding 60 CAG repeats was previously described (G. H. Wang et al., Neuroreport 10, 12(1999)). This fragment was fused to the N-terminal of a variant of yellow fluorescent protein (Venus) (T. Nagai et al., Nat. Biotechnol. 20, 1 (2002)) and inserted into the pcDNA3.1 vector (60Q). Two Hsc70 binding motifs (HSC70bm) (SEQ ID NOs:9 and 10: in bold) were inserted between the Cfr13I and BamHI cutting sites of 60Q: 5′-GTTAAGAAGGATCAA-GCTGGAGCCGCTGCACCG-AAGTTCGAACGTCAA-3′ (SEQ ID NO:11). The tNhtt-16Q-EGFP and tNhtt-150Q-EGFP plasmids for transient transfection were prepared by the introduction of the coding sequence into pcDNA3.1 vector (Invitrogen). […]
To investigate whether the (R)HQ targets the polyQ to lysosomes, the present inventors co-transfected HQ or other constructs with 16Q-EGFP or 150Q-EGFP to Neuro2a cells for 16 hours. In the cells expressing 16Q-EGFP, none of the co-transfected constructs had any effect on the subcellular distribution of the green fluorescence (FIG. 2C). […] To confirm this observation, the present inventors co-transfected the tested constructs with tNhtt-60Q to Neuro2a cells, 16 hours later purified intact lysosomes and analyzed them for the presence of the polyQ protein. […]

T1 sequence (P42858 with tags, fused parts or gaps with the stated changes): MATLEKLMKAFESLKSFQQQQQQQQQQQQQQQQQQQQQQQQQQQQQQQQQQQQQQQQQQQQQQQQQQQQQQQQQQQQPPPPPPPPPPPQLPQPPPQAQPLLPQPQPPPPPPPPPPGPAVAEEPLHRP

With “HSC70bm-(QBP1)2 (MARVKKDQAEPLHRKFERQPPGSNWKWWPGIFDSNWKWWPGIFD) [HQ]” the “translocation of expanded polyQ toward the lysosomes” value (tNhtt-60Q) was “efficient translocation” and the “subcellular distribution of 150Q-EGFP fluorescence” value (150Q-EGFP) was “fluorescence intensity decreased, redistributed and partly co-localized with the lysosomal marker”.

From US20100016221A1, “METHOD OF DEGRADING PROTEIN BY CHAPERONE-MEDIATED AUTOPHAGY” (RIKEN, priority 2008, published 2010)
